From PMC5180188, “Structural Insights on PHA Binding Protein PhaP from Aeromonas hydrophila” (Scientific Reports, 2016) come the findings set out here.

The data set deals with the molecule itself. The data set is described as follows: SEC + other: dynamic light scattering; Superdex 200 in 50 mM Tris pH 8.0, 500 mM NaCl; DLS at 0.5 mg/ml in aqueous buffer.

B1: PhaPAh (PHA binding protein PhaP, a phasin, from Aeromonas hydrophila strain 4AK4) (natural protein, UniProt O32470 1-116, looked up)
chain: MNMDVIKSFTEQMQGFAAPLTRYNQLLASNIEQLTRLQLASANAYAELGLNQLQAVSKVQDTQSLAALGTVQLETASQLSRQMLDDIQKLSALGQQFKEELDVLTADGIKKSTGKA
notes: PhaP (phasin) of Aeromonas hydrophila strain 4AK4, UniProtKB O32470, residues 1-116; called full-length in the methods; Cloned in pGEX-6P-1; residues left by PreScission cleavage are not described; Phasing used a (Ta6Br12)2+ soaked crystal and a selenomethionine-labelled crystal; the final model is of the native crystal; also called wild type; wild-type PhaPAh; not shown: GST, N-terminal, cleaved
Regarding B1, the stoichiometry N (commonly a count of units in the complex or per binding partner) was determined as 4.
